Experimental data: US20210180049A1 (CHUGAI SEIYAKU KABUSHIKI KAISHA, priority 2013, published 2021)

Legend:
[1] = target: T1, human IL-6 receptor (hIL-6R) (Homo sapiens, UniProt P08887); assay: phage ELISA for hIL-6R binding in the presence/absence of small molecule cocktail (SC); conditions: absorbance at 450 nm
T1 sequence (P08887 20-357 limits assumed): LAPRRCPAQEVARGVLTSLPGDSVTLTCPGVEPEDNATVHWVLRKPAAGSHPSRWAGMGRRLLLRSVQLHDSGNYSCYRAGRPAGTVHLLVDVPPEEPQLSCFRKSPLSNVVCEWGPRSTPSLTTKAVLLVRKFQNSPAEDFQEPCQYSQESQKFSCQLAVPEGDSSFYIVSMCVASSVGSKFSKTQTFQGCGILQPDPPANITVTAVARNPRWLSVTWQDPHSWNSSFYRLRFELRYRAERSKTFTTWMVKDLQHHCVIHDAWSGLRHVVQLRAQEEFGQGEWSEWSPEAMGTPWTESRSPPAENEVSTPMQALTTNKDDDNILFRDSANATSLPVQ
Procedure: From a single colony of E. coli obtained in (6-1), a phage-containing culture supernatant was collected according to a conventional method (Methods Mol. Biol. (2002) 178, 133-145). […] A StreptaWell 96 microtiter plate (Roche) was coated overnight with 100 μL of TBS containing biotin-labeled hIL-6R. […] After removing 2% skim milk/TBS, purified phages were added to each well of the plate, and the plate was left still at room temperature for one hour to allow antibody-presenting phages to bind to biotin-labeled hIL-6R present in each well in the presence/absence of SC. Each well was washed with TBST or SC/TBST, and HRP-conjugated anti-M13 antibody (Amersham Pharmacia Biotech) diluted with TBS or SC/TBS was added thereto, and the plate was incubated for one hour. After washing with TBST or SC/TBST, the chromogenic reaction of TMB single solution (ZYMED) added in each well was terminated by adding sulfuric acid. Then, the color development was measured by absorbance at 450 nm.

[2] = target: T1, human IL-6 receptor (hIL-6R); assay: SPR dissociation of antibody from immobilized hIL-6R with or without kynurenine; type: binding; conditions: bound in 100 μmol/L kynurenine, then buffer without kynurenine
Procedure: The running buffers used were 20 mmol/L ACES, 150 mmol/L NaCl, 0.05% (w/v) Tween 20, pH 7.4, and 20 mmol/L ACES, 150 mmol/L NaCl, 0.05% (w/v) Tween 20, pH 7.4, 100 μmol/L kynurenine. The measurements were performed at 25° C. As an analyte, 5 μg/mL 6RNMSC1-2_F02 diluted with 20 mmol/L ACES, 150 mmol/L NaCl, 0.05% (w/v) Tween 20, pH 7.4, containing 100 μmol/L kynurenine was allowed to interact for 180 seconds with hIL-6R immobilized onto Sensor chip CM5 by amine coupling. Then, the mode of the dissociation of hIL-6R was observed under each running buffer condition. […] Specifically, the regulation by kynurenine on binding of the antibody to hIL-6R was confirmed to be reversible.

[3] = SPR (Biacore T200) binding of 6RNMSC1-2_F02 and variants to kynurenine
Procedure: An appropriate amount of protein A (Invitrogen) was immobilized onto Sensor chip CM4 (GE Healthcare) by the amine coupling method. The antibody of interest was captured thereon, and the antigen kynurenine and derivatives thereof were allowed to interact. The running buffer used was 50 mmol/L Tris-HCl, 150 mmol/L NaCl, 0.02% (w/v) Tween 20, 5% DMSO, pH 7.6. All measurements were carried out at 15° C. The antigens were diluted with the running buffer.
Then, the running buffer was run at a flow rate of 30 μL/min for 60 seconds to observe the dissociation of antigens from the antibody. Kinetic parameters, the association rate constant ka (1/Ms) and the dissociation rate constant kd (l/s), were calculated based on the sensorgrams obtained by the measurements. The dissociation constant KD (M) was calculated from these constants. Each parameter was calculated using Biacore T200 Evaluation Software (GE Healthcare).
(§1) Meanwhile, the type of sensor chip immobilized with Protein A was changed to Sensor chip Series S CM3 (GE Healthcare) to measure some of the variants. When kynurenine dissociation was too fast to determine the dissociation rate constant, a dissociation constant KD (M) was calculated by analysis of equilibrium values based on the degree of binding response during the interaction with each antigen (association phase). In this case also, Biacore T200 Evaluation Software (GE Healthcare) was used to calculate the parameters.
as §1
(§2) When kynurenine dissociation was too fast to determine the dissociation rate constant, the dissociation constant KD (M) was calculated by analysis of equilibrium values based on the degree of binding response when it is interacted with each antigen (association phase). Also in this case, the Biacore T200 Evaluation Software (GE Healthcare) was used to calculate parameters. […] Each variant and its parental antibody F02h011/F021003 were compared in terms of the KD value for kynurenine.
as §2, with “analyzing” for “analysis of”, “sequence” for “antibody”

hIL-6R = target: T2, hIL-6R (Homo sapiens, UniProt P08887); assay: IgG ELISA for hIL-6R binding under conditions of Table 38; conditions: IgG 2.5 μg/mL
T2 sequence (P08887 20-357 limits assumed): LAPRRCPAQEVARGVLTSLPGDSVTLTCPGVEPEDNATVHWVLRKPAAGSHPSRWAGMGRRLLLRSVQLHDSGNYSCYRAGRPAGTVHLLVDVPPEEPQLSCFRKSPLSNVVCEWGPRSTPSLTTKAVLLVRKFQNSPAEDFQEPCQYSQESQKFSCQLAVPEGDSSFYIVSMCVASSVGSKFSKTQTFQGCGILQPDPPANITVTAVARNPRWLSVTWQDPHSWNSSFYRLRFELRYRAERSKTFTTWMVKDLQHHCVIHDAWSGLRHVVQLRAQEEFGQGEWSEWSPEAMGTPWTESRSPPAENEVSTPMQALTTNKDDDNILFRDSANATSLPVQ
Procedure: The selected six types of antibodies and the 6RNMSC1-2_F02 antibody were subjected to ELISA under the conditions indicated in Table 38.
First, a StreptaWell 96 microtiter plate (Roche) was coated with 100 μL of TBS containing biotin-labeled hIL-6R at room temperature for one or more hours. After removing biotin-labeled hIL-6R that are not bound to the plate by washing each well of the plate with TBST, the wells were blocked with 250 μL of Blocking Buffer (2% skim milk/TBS) for one or more hours. Blocking Buffer was removed from each well. 100 μL each of the purified IgGs prepared to 2.5 μg/mL using TBS under the conditions described in Table 38 were added to the wells, and the plate was allowed to stand at room temperature for one hour to allow each IgG to bind to biotin-labeled hIL-6R in each well. TBST was prepared to make the final concentrations shown in Table 38, and each well was washed with the prepared TBST. HRP-conjugated anti-human IgG antibody (BIOSOURCE) diluted with TBS containing the same small molecules was added to each well. The plate was incubated for one hour. After washing with TBST prepared to the final concentrations shown in Table 38, the chromogenic reaction of the solution in each well added with TMB single solution (ZYMED) was terminated by adding sulfuric acid. Then, the color development was measured by absorbance at 450 nm.

Procedure for Tm measurement by DSC: Measurement by DSC was carried out by a method known to those skilled in the art.
DSC measurement was carried out by a method known to those skilled in the art.

B1: 6RNMSC1-2_F02: antibody binding hIL-6R in the presence of kynurenine; heavy chain SEQ ID NO: 32, light chain SEQ ID NO: 33 (antibody, listed as Homo sapiens, V domains shown)
VH: QVQLVQSGAEVKKPGSSVKVSCKASGGTFSSYAISWVRQAPGQGLEWMGGIIPIFGTANYAQKFQGRVTITADESTSTAYMELSSLRSEDTAVYYCARDAPVVARPRGAFDIWGQGTMVTVSS
VL: DIVMTQTPLSSPVTLGQPASISCRSSQSLVHSDGNTYLSWLQQRPGQPPRLLIHEISNRFSGVPDRFSGSGAGTNFTLKISRVEAEDVGVYYCMQATQFPRTFGQGTKVEIK
With B1 the “binding activity to the antigen hIL-6R in the presence of a small molecule mixture” value [1] was “having binding activity”, the “dissociation from hIL-6R when kynurenine is no more present” value [2] was “rapidly dissociating hIL-6R” and the Tm (Tm measurement by DSC) was 82.9 °C. For the same molecule, the “kynurenine binding (in words)” value ([3]; Biacore) was “confirmed once again to bind to kynurenine”, the Kd ([3]; Biacore T200, 15° C., 5% DMSO) was 239 µM and the ka for kynurenine ([3]; Biacore T200, 15° C., 5% DMSO) was 709 M⁻¹ s⁻¹. For the same molecule, the kd for kynurenine ([3]; Biacore T200, 15° C., 5% DMSO) was 0.17 L/s and the “absorbance under condition 2 or 3 as compared to condition 1 (kynurenine-specific binding to biotin-labeled hIL-6R)” value (hIL-6R) was “markedly low”.
